We go through 77 sequences from the supplement of paper PMC7877785.

± gives the uncertainty stated by the source.

The nature of the data set: self-splicing fitness, log relative to wild type (ln ratio); higher = more splicing; Tetrahymena group I intron in knt gene, E. coli kanamycin selection, DiMSum; sequences stand for … in CUCUCU…GGAGGGAAAAGUUAUCAGGCAUGCACCUGGUAGCUAGUCUUUAAACCAAUAGAUUGCAUCGGUUUAAAAGGCAAGACCGUCAAAUUGCGGGAAAGGGGUCAACAGCCGUUCAGUACCAAGUCUCAGGGGAAACUUUGAGAUGGCCUUGCAAAGGGUAUGGUAAUAAGCUGACGGACAUGGUCCUAACCACGCAGCCAAGUCCUAAGUCAACAGAUCUUCUGUUGAUAUGGAUGCAGUUCACAGACUAAAUGUCGGUCGGGGAAGAUGUAUUCUUCUCAUAAGAUAUAGUCGGACCUCUCCUUAAUGGGAGCUAGCGGAUGAAGUGAUGCAACACUGGAGCCGCUGGGAACUAAUUUGUAUGCGAAAGUAUAUUGAUUAGUUUUGGAGUACUCGUGGUCG
In outline: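 Pooled colonies went to amplicon sequencing on an Illumina HiSeq 2500 after six replicate transformations. The plates were LB agar with 100 μg/mL carbenicillin, 50 μM IPTG and 0.2% rhamnose, with or without 25 μg/mL kanamycin, incubated overnight at 37°C or 30°C. The E. coli BL21(DE3) library had all eight P1ex-region intron nucleotides randomised, the intron placed in the knt kanamycin-resistance gene on pET-22b(+). DiMSum fitness is the error-weighted combination of replicate fold changes, kanamycin against none, normalised to wild type.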

As to GAGCAGCAAUAUUACGAUCC, the “self-splicing fitness (ln)” value reads like this: (30 °C) -2.45 ± 0.19; (37 °C) -0.494 ± 0.17.
On the same counts, the results for GAGCAGCAAUAUUACGAUGU are -3.19 ± 0.15 and -1.37 ± 0.11.
On the same counts, the results for GAGCAGCAAUAUUACGCCCG are -1.84 ± 0.25 and -0.798 ± 0.27.
For GAGCAGCAAUAUUACGCGCC the same measures were -3.87 ± 0.28 and -3.17 ± 0.35.
As for GAGCAGCAAUAUUACGCUUC, the “self-splicing fitness (ln)” value (30 °C) was -2.37 ± 0.28.
Consider GAGCAGCAAUAUUACGGAAC, for which the “self-splicing fitness (ln)” value was -3.14 ± 0.23 (30 °C) and -2.13 ± 0.16 (37 °C).
On the same counts, the results for GAGCAGCAAUAUUACGGACC are -0.847 ± 0.11 and -0.206 ± 0.16.
GAGCAGCAAUAUUACGGAGG: the “self-splicing fitness (ln)” value runs as follows: (30 °C) -3.98 ± 0.21; (37 °C) -2.3 ± 0.21.
On the same counts, the results for GAGCAGCAAUAUUACGGCGG are -2.18 ± 0.11 and -1.77 ± 0.16.
On the same counts, the results for GAGCAGCAAUAUUACGGGCA are -1.48 ± 0.17 and -0.674 ± 0.13.
On to GAGCAGCAAUAUUACGGGGA, for which the “self-splicing fitness (ln)” value reads like this: (30 °C) -2.84 ± 0.21; (37 °C) -2.05 ± 0.14.
Consider GAGCAGCAAUAUUACGGGGG, for which the “self-splicing fitness (ln)” value (30 °C) is -3.36 ± 0.26 and the “self-splicing fitness (ln)” value (37 °C) was -2.46 ± 0.32.
GAGCAGCAAUAUUACGGGUA: the “self-splicing fitness (ln)” value is, setting by setting: (30 °C) -3.4 ± 0.16; (37 °C) -2.36 ± 0.14.
On the same counts, the results for GAGCAGCAAUAUUACGGUGA are -2.25 ± 0.12 and -0.646 ± 0.13.
On the same counts, the results for GAGCAGCAAUAUUACGUAAG are -2.59 ± 0.17 and -1.45 ± 0.18.
On the same counts, the results for GAGCAGCAAUAUUACGUCCG are -0.984 ± 0.3 and -0.968 ± 0.41.
On to GAGCAGCAAUAUUACGUCGA, for which the “self-splicing fitness (ln)” value is -1.51 ± 0.12 (30 °C) and -0.741 ± 0.12 (37 °C).
For GAGCAGCAAUAUUACGUGCA the same measures were -1.15 ± 0.071 and -0.471 ± 0.081.
Turning to GAGGAGCAAUAUUACGAAAC, the “self-splicing fitness (ln)” value runs as follows: (30 °C) -2.22 ± 0.34; (37 °C) -1.87 ± 0.33.
For GAGGAGCAAUAUUACGAACC the same measures were -2.84 ± 0.42 and -1.19 ± 0.38.
On the same counts, the results for GAGGAGCAAUAUUACGACAU are -2.069 ± 0.02 and -1.21 ± 0.036.
As to GAGGAGCAAUAUUACGACCA, the “self-splicing fitness (ln)” value (30 °C) was -2.57 ± 0.4.
Turning to GAGGAGCAAUAUUACGAUAA, the “self-splicing fitness (ln)” value was -2.91 ± 0.26 (30 °C) and -1.35 ± 0.33 (37 °C).
For GAGGAGCAAUAUUACGAUCU the same measures were -0.772 ± 0.12 and -0.217 ± 0.12.
For GAGGAGCAAUAUUACGCCCA the same measures were 0.0821 ± 0.26 and -0.507 ± 0.37.
For GAGGAGCAAUAUUACGCGCG, the “self-splicing fitness (ln)” value runs as follows: (30 °C) -2.81 ± 0.28; (37 °C) -0.781 ± 0.39.
On the same counts, the results for GAGGAGCAAUAUUACGGAUC are -1.61 ± 0.16 and -0.13 ± 0.17.
As to GAGGAGCAAUAUUACGGAUU, the “self-splicing fitness (ln)” value runs as follows: (30 °C) -3.61 ± 0.18; (37 °C) -1.95 ± 0.17.
For GAGGAGCAAUAUUACGGCGC the same measures were -1.62 ± 0.34 and -0.697 ± 0.37.
On the same counts, the results for GAGGAGCAAUAUUACGUAAC are -1.59 ± 0.19 and -2.72 ± 0.41.
On the same counts, the results for GAGGAGCAAUAUUACGUAAU are -3.87 ± 0.22 and -2.54 ± 0.19.
Turning to GAGGAGCAAUAUUACGUACG, the “self-splicing fitness (ln)” value (30 °C) is -2.21 ± 0.19.
In the case of GAGGAGCAAUAUUACGUAGG, the “self-splicing fitness (ln)” value (30 °C) is -2.42 ± 0.42 and the “self-splicing fitness (ln)” value (37 °C) was -1.27 ± 0.23.
For GAGGAGCAAUAUUACGUAUC the same measures were -4.63 ± 0.42 and -2.74 ± 0.33.
For GAGGAGCAAUAUUACGUGCG the same measures were -2.06 ± 0.15 and -1.39 ± 0.17.
With GAGUAGCAAUAUUACGACCC, the “self-splicing fitness (ln)” value (30 °C) was 0.0573 ± 0.39.
For GAGUAGCAAUAUUACGACCG, the “self-splicing fitness (ln)” value is, setting by setting: (30 °C) -3.1 ± 0.39; (37 °C) -0.977 ± 0.37.
On the same counts, the results for GAGUAGCAAUAUUACGAUCU are -1.59 ± 0.18 and -0.479 ± 0.16.
With GAGUAGCAAUAUUACGCAAU, where the note is “37 °C”, the “self-splicing fitness (ln)” value is -2.34 ± 0.31.
Regarding GAGUAGCAAUAUUACGCAUG, the “self-splicing fitness (ln)” value is, setting by setting: (30 °C) -0.973 ± 0.29; (37 °C) -0.606 ± 0.47.
For GAGUAGCAAUAUUACGCCAC the same measures were -3.64 ± 0.28 and -0.452 ± 0.21.
On the same counts, the results for GAGUAGCAAUAUUACGCCAG are -3.3 ± 0.26 and -2.75 ± 0.48.
For GAGUAGCAAUAUUACGCCCA the same measures were -1.78 ± 0.39 and -1.39 ± 0.24.
Regarding GAGUAGCAAUAUUACGCCCU, the “self-splicing fitness (ln)” value (30 °C) is -0.812 ± 0.24 and the “self-splicing fitness (ln)” value (37 °C) was -0.124 ± 0.23.
With GAGUAGCAAUAUUACGCCGA, the “self-splicing fitness (ln)” value by setting is: (30 °C) -1.54 ± 0.17; (37 °C) -0.774 ± 0.13.
On the same counts, the results for GAGUAGCAAUAUUACGCCUG are -1.23 ± 0.13 and -0.972 ± 0.15.
For GAGUAGCAAUAUUACGGAAG the same measures were -3.65 ± 0.23 and -2.71 ± 0.26.
As to GAGUAGCAAUAUUACGGAAU, the “self-splicing fitness (ln)” value was -2.46 ± 0.31 (30 °C) and -1.32 ± 0.23 (37 °C).
For GAGUAGCAAUAUUACGGAGA the same measures were -2.29 ± 0.37 and -2.12 ± 0.29.
As for GAGUAGCAAUAUUACGGAUG, the “self-splicing fitness (ln)” value (30 °C) is -1.42 ± 0.17.
As to GAGUAGCAAUAUUACGGUAA, the “self-splicing fitness (ln)” value is -2.23 ± 0.18 (30 °C) and -1.25 ± 0.16 (37 °C).
As for GAGUAGCAAUAUUACGGUGU, the “self-splicing fitness (ln)” value is, setting by setting: (30 °C) -2.71 ± 0.11; (37 °C) -2.35 ± 0.18.
On the same counts, the results for GAGUAGCAAUAUUACGUCCA are -1.32 ± 0.14 and -0.346 ± 0.16.
On to GAGUAGCAAUAUUACGUCCU, for which the “self-splicing fitness (ln)” value reads like this: (30 °C) 0.0223 ± 0.087; (37 °C) 0.18 ± 0.15.
GAGUAGCAAUAUUACGUGAC: the “self-splicing fitness (ln)” value (30 °C) was -1.42 ± 0.22 and the “self-splicing fitness (ln)” value (37 °C) is -1.89 ± 0.39.
On the same counts, the results for GAGUAGCAAUAUUACGUUCG are -2.12 ± 0.15 and -0.913 ± 0.15.
On the same counts, the results for GAUAAGCAAUAUUACGACCG are -1.01 ± 0.18 and -0.581 ± 0.36.
On the same counts, the results for GAUAAGCAAUAUUACGACUU are 0.544 ± 0.08 and 0.0887 ± 0.095.
Turning to GAUAAGCAAUAUUACGCAUU, the “self-splicing fitness (ln)” value was -2.5 ± 0.32 (30 °C) and -2.26 ± 0.35 (37 °C).
For GAUAAGCAAUAUUACGCCUG the same measures were -0.902 ± 0.09 and 0.488 ± 0.13.
For GAUAAGCAAUAUUACGCGCC the same measures were -1.76 ± 0.17 and -1.31 ± 0.26.
On the same counts, the results for GAUAAGCAAUAUUACGGAAA are -2.35 ± 0.41 and -1.67 ± 0.29.
For the sequence GAUAAGCAAUAUUACGGAGG, the “self-splicing fitness (ln)” value is -1.43 ± 0.13 (30 °C) and -2.92 ± 0.29 (37 °C).
Turning to GAUAAGCAAUAUUACGGCAG, the “self-splicing fitness (ln)” value (30 °C) was -3.5 ± 0.32 and the “self-splicing fitness (ln)” value (37 °C) is -2.51 ± 0.33.
For GAUAAGCAAUAUUACGGGCC the same measures were -1.48 ± 0.17 and -1.13 ± 0.18.
On the same counts, the results for GAUAAGCAAUAUUACGGGGG are -3.65 ± 0.26 and -3.04 ± 0.28.
Regarding GAUAAGCAAUAUUACGGGUU, the “self-splicing fitness (ln)” value was -2.18 ± 0.12 (30 °C) and -2.26 ± 0.15 (37 °C).
For GAUAAGCAAUAUUACGGUCA the same measures were -1.71 ± 0.12 and -0.711 ± 0.11.
On to GAUAAGCAAUAUUACGUACU, for which the “self-splicing fitness (ln)” value was -0.466 ± 0.089 (30 °C) and -0.373 ± 0.12 (37 °C).
For GAUAAGCAAUAUUACGUAGC the same measures were -2.22 ± 0.13 and -0.793 ± 0.12.
As for GAUAAGCAAUAUUACGUCUG, the “self-splicing fitness (ln)” value is -2.51 ± 0.24 (30 °C) and -1.57 ± 0.25 (37 °C).
For GAUAAGCAAUAUUACGUGGA the same measures were -3.96 ± 0.38 and -2.55 ± 0.17.
Regarding GAUCAGCAAUAUUACGACUA, the “self-splicing fitness (ln)” value was -0.353 ± 0.4 (30 °C) and -0.914 ± 0.2 (37 °C).
For GAUCAGCAAUAUUACGAUAG the same measures were -0.506 ± 0.067 and 0.475 ± 0.093.
As for GAUCAGCAAUAUUACGAUGA, the “self-splicing fitness (ln)” value reads like this: (30 °C) -0.0415 ± 0.095; (37 °C) 0.313 ± 0.12.
For GAUCAGCAAUAUUACGAUUU the same measures were -0.286 ± 0.085 and 0.0945 ± 0.1.
For GAUCAGCAAUAUUACGCAUA the same measures were -0.521 ± 0.082 and -0.0106 ± 0.084.
